Data taken from patent US20200199244A1 (published 2020).
Residue numbers refer to the chain shown, from its start. Values joined by “and” are separate entries in the source; they are usually repeats but may differ in a detail not shown here. Equal values may be shown once.

B1: BMS3h-37 (other)
VH: EVQLLESGGGLVQPGGSLRLSCAASGFTFEWYEMQWVRQAPGKGLEWVSAISGDGYRTYYADSVKGRFTISRDNSKNTLYLQMNSLRAEDTAVYYCAKELGYFDYWGQGTLVTVSS
notes: dAb, single VH
B2: BMS3h-197 (other)
VH: EVQLLESGGGLVQPGGSLRLSCAASGFTFGSAAMDWVRQAPGKGLEWVSSINDMGSNTYYADSVKGRFTISRDNSKNTLYLQMNSLRAEDTAVYYCAKQGGRFDYWGQGTLVTVSS
notes: dAb, single VH
B3: BMS3h-131 (other)
VL: DIQMTQSPSSLSASVGDRVTITCRANSSILWALAWYQQKPGKAPKLLIESSSGLQSGVPSRFSGSGSGTDFTLTISSLQPEDFATYYCVQNAGWPGTFGQGTKVEIKR
notes: dAb, single VK
B4: BMS3h-193 (other)
VL: DIQMTQSPSSLSASVGDRVTITCRASQTIERRLNWYQQKPGKAPKLLIYLASRLQSGVPSRFSGSGSGTDFTLTISSLQPEDFATYYCHQYASPPLTFGQGTKVEIKR
notes: dAb, single VK
B5: BMS3h-38 (other)
VH: B1 VH with W31E, Y32E, Q35I, D54S, Y56G, R57S, L100P, G101F, Y102R
notes: dAb, single VH
B6: BMS3h-41 (other)
VH: B1 VH with E30T, W31E, Q35I, A50S, D54N, Y56A, R57N, L100P, G101L, Y102R
notes: dAb, single VH
B7: DMS0662 DOM7h-11-90-TVAAPS-BMS3h-56-201 (bispecific antibody)
chain: DIQMTQSPSSLSASVGDRVTITCRASRPIGTMLSWYQQKPGKAPKLLILAFSRLQSGVPSRFSGSGSGTDFTLTISNLQPEDFATYYCAQAGTHPTTFGQGTKVEIKRTVAAPSEVQLLESGGGLVQPGGSLRLSCAASGFTFRDYEMWWVRQAPGKGLERVSAINPQGTRTYYADSVKGRFTISRDNSKNTLYLQMNSLRAEDTAVYYCAKLPFYFQEWGQGTLVTVSS
notes: AlbudAb inline fusion (ILF): an anti-CD40 dAb and an anti-serum-albumin dAb joined by a linker in one polypeptide
B8: DMS0663 DOM7h-11-86-TVAAPS-BMS3h-56-201 (bispecific antibody)
chain: B7 chain with N77S, F83V
notes: as for B7
B9: DMS0664 DOM7h-11-69-TVAAPS-BMS3h-56-201 (bispecific antibody)
chain: B7 chain with N77S, T93V
notes: as for B7

Legend:
[1] = biological target: T1, human CD40 (BMS, CY24FEB06-01) (human, UniProt P25942 21-193); experiment: bead RBA, competition with IZ-CD40L
T1 construct: Soluble reagent of the bead and ELISA RBA; It is detected with an anti-human IgG (Fc) mAb, so it may be a CD40-Ig fusion

[2] = biological target: T2, human serum albumin (human, UniProt P02768 25-609); experiment: SPR (BIAcore 3000), HSA amine-coupled on CM5 chip, ILF as analyte, 1:1 Langmuir fit, 25 C
T2 construct: Amine-coupled to a CM5 BIAcore chip; also called HSA
Excerpt: (§1) A BIAcore™ 3000 instrument (GE Healthcare) was used to analyze the binding kinetics of anti-CD40-AlbudAb ILFs to human and cynomolgus serum albumin. Approximately 400 response units (RU) of human serum albumin (HSA) or cynomolgus serum albumin (CSA) were immobilized on a flow-cell of a CM5 BIAcore™ chip using an Amine Coupling Kit (GE Healthcare). A second flow cell without any ligand immobilized served as a reference flow-cell for inline referencing. An appropriate doubling dilution series of each dAb to be analyzed was prepared in HBS-EP buffer (0.01 M HEPES pH 7.4 with 0.15 M NaCl, 3 mM EDTA and 0.005% v/v Surfactant P20, GE Healthcare). Two hundred microlitres of each ILF were injected in duplicate using the instrument's KINJECT function. The injections were made across the serum albumin-immobilized and reference flow-cells in series, with inline subtraction of the signal from the reference cell. The experiment was performed at 25° C. and a flow rate of 40 μl/min of HBS-EP. After each injection had been completed, the dAb was allowed to dissociate from the ligand in buffer for 120 s before regeneration with a 10 μl injection of 10 mM glycine pH 2.0. A reference injection of HBS-EP buffer blank (containing no analyte) was also injected under the same conditions to serve as a second reference for subtraction from each analyte trace. BIAevaluation 4.1 software (GE Healthcare) was used to subtract both the reference flow-cell trace and the buffer blank trace from each analyte trace.
(§2) The same software was used to perform a simultaneous, global fit of a 1:1 (Langmuir) kinetic model to the association and dissociation phases of the analyte dilution series traces. This model yielded association and dissociation rate constants (kₐ and kd, respectively) and the equilibrium dissociation constant (KD) of the interaction.

[3] = biological target: human CD40 (human, UniProt P25942 21-277); experiment: cell-based or functional assay
[4] = biological target: T3, cynomolgus serum albumin (cynomolgus, UniProt A2V9Z4 25-608); experiment: SPR (BIAcore 3000), CSA amine-coupled on CM5 chip, ILF as analyte, 1:1 Langmuir fit, 25 C
T3 construct: Amine-coupled to a CM5 BIAcore chip; also called CSA; Cyno Serum Albumin
T3 sequence (A2V9Z4 25-608 limits assumed): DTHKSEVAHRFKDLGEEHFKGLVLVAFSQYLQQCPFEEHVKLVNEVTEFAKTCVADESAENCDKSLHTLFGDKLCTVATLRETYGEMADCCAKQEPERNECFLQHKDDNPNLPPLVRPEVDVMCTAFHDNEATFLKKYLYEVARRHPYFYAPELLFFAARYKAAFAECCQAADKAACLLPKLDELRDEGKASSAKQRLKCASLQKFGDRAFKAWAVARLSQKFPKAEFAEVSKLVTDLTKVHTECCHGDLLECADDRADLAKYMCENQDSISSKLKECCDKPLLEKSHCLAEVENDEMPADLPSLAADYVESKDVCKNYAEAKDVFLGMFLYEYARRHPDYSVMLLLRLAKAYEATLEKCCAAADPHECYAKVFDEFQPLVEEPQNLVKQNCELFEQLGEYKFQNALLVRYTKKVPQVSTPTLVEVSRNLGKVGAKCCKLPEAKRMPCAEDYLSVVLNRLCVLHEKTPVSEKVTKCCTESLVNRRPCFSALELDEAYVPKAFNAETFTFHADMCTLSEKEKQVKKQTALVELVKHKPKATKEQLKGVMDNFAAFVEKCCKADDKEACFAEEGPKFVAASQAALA
Excerpt: as §1, §2

T2 sequence (P02768 25-609 limits assumed): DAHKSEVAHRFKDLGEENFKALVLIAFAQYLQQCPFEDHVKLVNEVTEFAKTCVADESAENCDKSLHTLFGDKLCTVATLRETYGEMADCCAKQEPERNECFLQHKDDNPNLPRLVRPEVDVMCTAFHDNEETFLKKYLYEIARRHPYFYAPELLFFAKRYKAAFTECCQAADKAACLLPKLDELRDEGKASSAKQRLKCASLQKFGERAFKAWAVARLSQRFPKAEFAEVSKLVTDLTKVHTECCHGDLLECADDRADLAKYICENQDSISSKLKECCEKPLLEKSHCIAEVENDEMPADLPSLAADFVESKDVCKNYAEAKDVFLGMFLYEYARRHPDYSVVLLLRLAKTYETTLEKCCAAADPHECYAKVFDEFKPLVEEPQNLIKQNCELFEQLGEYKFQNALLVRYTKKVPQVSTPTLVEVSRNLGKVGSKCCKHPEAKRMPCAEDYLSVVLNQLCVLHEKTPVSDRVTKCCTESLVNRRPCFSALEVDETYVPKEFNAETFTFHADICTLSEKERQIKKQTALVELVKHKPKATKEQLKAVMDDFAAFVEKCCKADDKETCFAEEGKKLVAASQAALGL

Binder | EC50 [1] | Kd [2] | koff [2] | kon [2] | ICAM-1 Cell Assay EC50 (nM), 10% bovine serum [3] [nM] | ICAM-1 Cell Assay EC50 (nM), 10% human serum [3] [nM] | Kd [4] | koff [4] | kon [4]
B1 | 100 nM and 200 nM |  |  |  |  |  |  |  | 
B2 | 30 nM |  |  |  |  |  |  |  | 
B3 | 500 nM and > 1000 nM |  |  |  |  |  |  |  | 
B4 | 1000 nM |  |  |  |  |  |  |  | 
B5 | 600 nM and 650 nM |  |  |  |  |  |  |  | 
B6 | 2000 nM and 1600 nM |  |  |  |  |  |  |  | 
B7 |  | 1.21 nM and 1.23 nM | 0.00133 s⁻¹ and 0.00147 s⁻¹ | 1.1e+06 M⁻¹ s⁻¹ and 1.19e+06 M⁻¹ s⁻¹ | 33.5 | > 1000 | 2.5 nM and 2.42 nM | 0.00252 s⁻¹ and 0.00266 s⁻¹ | 1.01e+06 M⁻¹ s⁻¹ and 1.1e+06 M⁻¹ s⁻¹
B8 |  | 1.12 nM and 1.21 nM | 0.0014 s⁻¹ and 0.0016 s⁻¹ | 1.25e+06 M⁻¹ s⁻¹ and 1.32e+06 M⁻¹ s⁻¹ | 21.4 | > 1000 | 2.38 nM and 2.52 nM | 0.00281 s⁻¹ and 0.00296 s⁻¹ | 1.18e+06 M⁻¹ s⁻¹
B9 |  | 0.57 nM and 1.59 nM | 0.00142 s⁻¹ and 0.00149 s⁻¹ | 2.5e+06 M⁻¹ s⁻¹ and 930000 M⁻¹ s⁻¹ | 16.5 | > 1000 | 1.09 nM and 2.97 nM | 0.00273 s⁻¹ and 0.00272 s⁻¹ | 2.51e+06 M⁻¹ s⁻¹ and 920000 M⁻¹ s⁻¹
